From patent publication US7108988B2, “Methods of identifying agents for inhibiting lentivirus replication” (priority 2001, dated 2006)

How the values were obtained:
[1] = molecular target: T1, CyPA (Homo sapiens, UniProt P62937); assay: Surface plasmon resonance (BIAcore) binding of Vpr peptides to immobilized recombinant CyPA; conditions: 25° C.; for binding to CyPA: peptide 1 to 250 μM, immobilized recombinant CyPA
T1 construct: purchased Sigma
Description: Surface plasmon resonance biosensor analysis (BIAcore-Spectroscopy) was applied to analyze the molecular aspects that govern interaction of Vpr with CyPA. For the first experiment, a novel peptide comprising the first 40 residues of the Vpr protein derived from the isolate HIV-1NL4-3 was used to study the interaction with CyPA.
Surface plasmon resonance measurements were performed at 25° C. using a BIACORE 2000 (BIAcore AB, Upsala Sweden) equipped with a CM5 research-grade sensor chip. […] The peptide Vpr^1-40 was dissolved at concentrations ranging from 1 to 250 μM in a running buffer (10 mM Hepes, 150 mM NaCl, 50 μM EDTA, 0.005% Tween 20, pH 7.4) and was injected over the flow cells containing CyPA bound to the chip matrix at a flow rate of 5 μl/min. Data were collected at a rate of 2.5 Hz during the 120 s association and dissociation phase. Vpr^1-40 interactions reached equilibrium rapidly and dissociation completely within 30 seconds. Results were corrected by the RU-values of the reference cell (without CyPA) to exclude unspecific binding of Vpr to the chip matrix. The experiment was repeated at least three times with two different charges of peptide and CyPA and reproducible results were obtained.
Synthetic Vpr^1-40 and mutants carrying Pro to Asn exchanges at either amino acid positions 5, 10 and 14 (P^5,10,14 to N ) or at position 35 (P^35 to N) or at all four positions (P^5,10,14,35 to N) were purified to homogeneity, and tested for binding to immobilized recombinant CyPA using the same surface plasmon resonance biosensor system. […] Thus, among prolines at positions 5, 10, 14, and 35 of Vpr^1-40, only proline-35 is essential for binding to CyPA.

[2] = molecular target: T1, CyPA; assay: In vitro CyPA/Vpr complex formation, non-reducing SDS-PAGE and Western blot; assay type: binding
From the text: […] Proteins were separated on a 14% polyacrylamide gel in SDS (without reducing agents), by PAGE. Proteins were detected by Western blotting after transfer of the proteins from the gel to membranes. CyPA and Vpr proteins were detected using anti-Vpr and anti-CyPA antibodies (Calbiochem).

[3] = molecular target: T1, CyPA; assay: Far-Western blot binding of Vpr to CyPA bound to nitrocellulose
Description: Investigation of full length Vpr^1-96 was not possible by BIAcore as the full length Vpr protein tends to undergo self association and protein precipitation, that all together yielded false positive binding signals. As an alternative we investigated the binding of Vpr to CyPA bound to nitrocellulose.
For the purpose of Far-Western Blot technique, purified recombinant CyPA was separated in a 15% SDS PAGE at a concentration of ˜150 ng CyPA per lane. Proteins were electro transferred onto nitrocellulose and individual strips of this CyPA-containing Western blot were blocked for 4 hours with 3% BSA in TBS. Strips were then incubated for 12 hrs at 4° C. with the peptide Vpr^1-96 at a concentration of 1 μg/ml, CyPA strips were incubated either in the absence of any detergent, or under more stringent conditions in TBS/T containing 0.5% Triton X100™ non-ionic detergent. Finally, strips were washed tree times in TBS/T for 10 minutes and bound Vpr was identified with anti-Vpr^1-96 (polyclonal antibodies raised in rabbits) followed by anti-rabbit IgG horse radish peroxidase (HRP) conjugate and enhanced chemiluminescence (ECL) staining. As a control, the CypA binding protein, HIV-1 capsid p24 was tested in parallel.

T1 sequence (P62937 whole entry): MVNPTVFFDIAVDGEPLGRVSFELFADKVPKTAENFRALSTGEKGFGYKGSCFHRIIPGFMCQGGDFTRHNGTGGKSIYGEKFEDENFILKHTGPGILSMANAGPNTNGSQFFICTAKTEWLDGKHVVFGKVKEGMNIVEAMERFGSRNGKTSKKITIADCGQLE

Substance: Vpr^1-20: very N-terminal fragment of Vpr
- binding to CyPA [1]: did not bind to CyPA

Substance: Vpr^1-96: full length Vpr peptide
- complex formation with CyPA ([2]; 1 μg each, 22° C., 12 hours, no reducing agent): formation of a novel approximately 29 kDa product
- complex formation with CyPA ([2]; with reducing agent (β-mercaptoethanol)): loss of the Vpr/CyPA complex
- binding to CyPA (Far-Western) ([3]; 1 μg/ml peptide, absence of detergent): binds to CyPA
- binding to CyPA (Far-Western) ([3]; presence of 0.5% TritonX100 non-ionic detergent): low affinity
- binding to CyPA (Far-Western) ([3]; presence of 0.5% TritonX100 non-ionic detergent, listed as Vpr): reduced

Substance: Pro-35 to Asn of Vpr^21-40: Vpr^21-40 with Pro-35 mutated to Asn
- binding to CyPA [1]: complete loss of CyPA binding

Substance: Vpr^1-40: peptide comprising the first 40 residues of the Vpr protein derived from the isolate HIV-1NL4-3
- time to complete dissociation from CyPA [1]: ≤ 30 s
- binding to CyPA [1]: concentration dependent binding to CyPA

Substance: Vpr^21-40: smaller fragment of Vpr
- binding to CyPA [1]: strong and dose-dependent binding to CyPA

Substance: P^5,10,14 to N (MEQANEDQGNQRENHNEWTL; Vpr 1-20; UniProt P69725 1-20, looked up, variant P5N P10N P14N)
- binding to CyPA [1]: retained dose-dependent binding to CyPA
